Results taken from article PMC7889895, “Crystal structure of a photosynthetic LH1-RC in complex with its electron donor HiPIP” (Nature Communications, 2021).

Target: light-harvesting 1 - reaction center complex (LH1-RC) of Thermochromatium tepidum (Thermochromatium tepidum, UniProt D2Z0P5 23-404; D2Z0P3 1-281; A8ASG6 1-325; D2Z0P9 1-259; D2Z0P2 1-61; D2Z0P1 …)
Assay: crystal structure; co-crystal by micro-batch under oil; HiPIP:LH1-RC mixed 15:1, LH1-RC 0.0694 mM; 30 mM sodium succinate pH 5, 20 mM CaCl2, 3.4% OPC, 30% PEG 1500; 20 °C; 2.9 Å
Details: both partners purified

B1: high-potential iron-sulfur protein (HiPIP) of Thermochromatium tepidum (natural protein, UniProt P80176 1-83, looked up)
chain: AAPANAVTADDPTAIALKYNQDATKSERVAAARPGLPPEEQHCANCQFMQANVGEGDWKGCQLFPGKLINVNGWCASWTLKAG
notes: High-potential iron-sulfur protein (HiPIP), Thermochromatium tepidum strain MC, native protein with its 4Fe-4S cluster, purified in the reduced state; Carries a 4Fe-4S cluster; also called Tch. tepidum HiPIP; source: purified from Tch. tepidum strain MC (soluble fraction of sonicated cells, DEAE column)
stoichiometry N: 1 HiPIP per LH1-RC
